Measured values published in article PMC10746227.

B1: WalK-LgBIT (native WalK) [S. aureus] / WalR-SmBIT (native WalR) [S. aureus] (parent)
chain 1: MARKVVVVDDEKPIADILEFNLKKEGYDVYCAYDGNDAVDLIYEEEPDIVLLDIMLPGRDGMEVCREVRKKYEMPIIMLTAKDSEIDKVLGLELGADDYVTKPFSTRELIARVKANLRRHYSQPAQDTGNVTNEITIKDIVIYPDAYSIKKRGEDIELTHREFELFHYLSKHMGQVMTREHLLQTVWGYDYFGDVRTVDVTIRRLREKIEDDPSHPEYIVTRRGVGYFLQQHE
chain 2: MKWLKQLQSLHTKLVIVYVLLIIIGMQIIGLYFTNNLEKELLDNFKKNITQYAKQLEISIEKVYDEKGSVNAQKDIQNLLSEYANRQEIGEIRFIDKDQIIIATTKQSNRSLINQKANDSSVQKALSLGQSNDHLILKDYGGGKDRVWVYNIPVKVDKKVIGNIYIESKINDVYNQLNNINQIFIVGTAISLLITVILGFFIARTITKPITDMRNQTVEMSRGNYTQRVKIYGNDEIGELALAFNNLSKRVQEAQANTESEKRRLDSVITHMSDGIIATDRRGRIRIVNDMALKMLGMAKEDIIGYYMLSVLSLEDEFKLEEIQENNDSFLLDLNEEEGLIARVNFSTIVQETGFVTGYIAVLHDVTEQQQVERERREFVANVSHELRTPLTSMNSYIEALEEGAWKDEELAPQFLSVTREETERMIRLVNDLLQLSKMDNESDQINKEIIDFNMFINKIINRHEMSAKDTTFIRDIPKKTIFTEFDPDKMTQVFDNVITNAMKYSRGDKRVEFHVKQNPLYNRMTIRIKDNGIGIPINKVDKIFDRFYRVDKARTRKMGGTGLGLAISKEIVEAHNGRIWANSVEGQGTSIFITLPCEVIEDGDWDE

Variants of: B1
Experiment: split luciferase (SmBIT/LgBIT) interaction assay in S. aureus
Conditions: with WalR-SmBIT (native WalR) [S. aureus]; maximum of the RLU curve, mutant peak at about 110 min, Wt peak at about 130 min; growth in LB in NRS384 Wt; sub-panel labelled Y32C; parent: 1.8e+04; read off a plot

Variant | response
chain 2 Y32C | 55000 RLU

Same assay, conditions: with WalR-SmBIT (native WalR) [S. aureus]; maximum of the RLU curve, mutant peak at about 125 min, Wt peak at about 120 min; growth in LB in NRS384 Wt; sub-panel labelled T389A; parent: 8e+03; read off a plot

Variant | response
chain 2 T389A | 60000 RLU

Same assay, conditions: with WalR-SmBIT (native WalR) [S. aureus]; maximum of the RLU curve, mutant peak at about 170 min, Wt peak at about 120 min; growth in LB in NRS384 Wt; sub-panel labelled H385A; parent: 8e+03; read off a plot

Variant | response
chain 2 H385A | 20000 RLU

Same assay, conditions: with WalK-LgBIT (native WalK) [S. aureus]; maximum of the RLU curve, mutant peak at about 170 min, Wt peak at about 120 min; growth in LB in NRS384 Wt; sub-panel labelled D53A/T101A; parent: 8e+03; read off a plot

Variant | response
chain 1 D53A T101A | 8000 RLU

Same assay, conditions: with WalK-LgBIT (native WalK) [S. aureus]; maximum of the RLU curve, mutant peak at about 140 min, Wt peak at about 125 min; growth in LB in NRS384 Wt; sub-panel labelled D53A; parent: 8.5e+03; read off a plot

Variant | response
chain 1 D53A | 17000 RLU

Same assay, conditions: with WalK-LgBIT (native WalK) [S. aureus]; maximum of the RLU curve, mutant peak at about 140 min, Wt peak at about 125 min; growth in LB in NRS384 Wt; sub-panel labelled D53E; parent: 8e+03; read off a plot

Variant | response
chain 1 D53E | 150000 RLU

Same assay, conditions: with WalR-SmBIT (native WalR) [S. aureus]; maximum of the RLU curve, mutant peak at about 165 min, Wt peak at about 120 min; growth in LB in NRS384 Wt; sub-panel labelled G223D; parent: 8e+03; read off a plot

Variant | response
chain 2 G223D | 19000 RLU
